Measurements as given in article PMC4694755.

Molecular target: Mouse importin β (mouse) (UniProt P70168)
Experiment: SPR

Mouse importin β (mouse), sequence (P70168 whole entry): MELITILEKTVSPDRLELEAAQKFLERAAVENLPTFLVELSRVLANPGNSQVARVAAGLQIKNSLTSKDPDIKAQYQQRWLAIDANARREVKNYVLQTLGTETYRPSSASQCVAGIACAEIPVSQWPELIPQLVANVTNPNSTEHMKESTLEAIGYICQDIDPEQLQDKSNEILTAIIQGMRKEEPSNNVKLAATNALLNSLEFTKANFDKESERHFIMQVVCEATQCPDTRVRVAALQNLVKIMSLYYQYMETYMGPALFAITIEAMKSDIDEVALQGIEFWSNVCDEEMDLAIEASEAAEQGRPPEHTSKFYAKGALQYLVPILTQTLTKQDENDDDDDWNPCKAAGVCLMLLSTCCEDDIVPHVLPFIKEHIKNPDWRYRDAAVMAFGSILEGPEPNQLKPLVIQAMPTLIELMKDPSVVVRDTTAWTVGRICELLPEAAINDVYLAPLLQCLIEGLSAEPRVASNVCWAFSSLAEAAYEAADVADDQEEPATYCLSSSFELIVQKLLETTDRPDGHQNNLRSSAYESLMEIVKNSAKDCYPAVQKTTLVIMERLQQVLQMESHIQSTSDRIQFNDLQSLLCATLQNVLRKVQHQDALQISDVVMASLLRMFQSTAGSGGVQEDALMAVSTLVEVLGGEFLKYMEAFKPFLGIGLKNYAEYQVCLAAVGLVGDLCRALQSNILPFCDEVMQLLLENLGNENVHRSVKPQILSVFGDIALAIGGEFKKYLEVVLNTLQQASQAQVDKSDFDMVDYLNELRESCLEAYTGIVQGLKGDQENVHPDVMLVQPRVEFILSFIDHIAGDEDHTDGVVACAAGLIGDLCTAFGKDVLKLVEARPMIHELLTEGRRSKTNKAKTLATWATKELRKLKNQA

For “human RanGTP (from UniProt P62826 1-216) (natural protein; other documents disagree on this pair)”, the koff was 0.00107 s⁻¹ and the kon was 44400 M⁻¹ s⁻¹.
